Measured values published in the DeepSol protein solubility set.

Experiment: soluble on expression in E. coli; label from the status in PepcDB or PDB records
In the case of “MSLTTIIFDNGGHNMKIGTIDSESPRLVPNSIVKAKHEKKRVFVAHEQEECSDKFSLFYVRPIERGYVVNWDTQQQIWEKTFGSMDVEASTSRIALTDNNYLIPALPDVSSEILFDYFGFTEVHKTSASTLVAKHSNKINNEKCAVVVDSGFSWTTVASFVNGMLIQDSVIRIDVGGKALTNKLKDWVSYRQLNVSEETYVINECKEDLCFVSQNFDESMKEARNRFQENTTMKRYIMPDFHSTFRGVVKDVKEPHDPQIPSIHLGVERFAIPEILFNPSDIDIDQCGVAEAVIESICQCPEALRPALAENIIVIGGSSCFPGFRERLEREVRSMLPAEYGLNVSNDVINPQTHSWHCGQELLTASKVPWINRKDWDERGDSLEFSNFFQTLVQSDELKGTRNFDDQREKSPKEDEDF”, the “soluble on expression in E. coli” value is reported as “not soluble”.
In the case of “MGSDKIHHHHHHMPSVFQLQALCAAVEKPSLRQAAEALCKTQPALTHALKQLESQLGLPLFNRDGYRLVLTGSGERIYQLALKTLESHAELEQLAQHLARGDEDRVVLTVEASFDLTPILSALESVQAEFSQTEIVIQQEYLTGAVERVQQGHANLAITPLAPALSPGTRLDTQPLSQGQMLNVAAPRLLARYPSLCSILELRKEYQILVQDSGSGTLGLKLGVQSAQRHWYVNSFATKLSLIEQGMGWGRLPEWMLTEALAAGRLQLLELADFPARQRFDYHLVRRSASVPGPVATRLWQRLGGGAL”, the “soluble on expression in E. coli” value is reported as “not soluble”.
With “MGSDKIHHHHHHMKIIPVFLPYAGCKKRCVFCDQIKATGQAKVPSLDDIARIIEEYSRTSNEYELGFYGGTFTGLSEEKMEEYLRFVKRFPVVKSVRVSTRPDEINERKLKILKKYGVNVIEIGVQSFLDEVLERSKRGYTSEEAEGACKLIKKNGFVLSVHLMVGLPGSDRRGEILSALRTVECGADMVRIHPTLVFEGTELHRMMEEGEYTPLNVEEAVDVCSDLVCIFEGWGTKVIRIGYHVPVELRKYVVAGPIDPSLGDRVRRTTMKKVIESLKPSRIVVPKNYLVWFEEAKVEVGDEFRFDDLSYADALFFTGKEVVERWLNG” the “soluble on expression in E. coli” value was “not soluble”.
With “MAHHHHHHMRCFTPRLSAAGNGVWRGFRQMYEEYALWRDRRDDERYAAVSEEGEEGITLSNRRICANPNACPRSVLLVPADCIVEAFRRERRGGVTADAVMFDLTCCRGSRGEARDNILRFLQAEEKGEKRGEDISEGQCSHADERGRYLIRVNSPEFDSANGFLDMELAALLGERIEGVLLPAVTVNTYSLVEEYIHPSHHLWALFDTPLSVVQASEICRQGHYRYAVMGSRRLAEDLHLPIGGVTYGDTYRGENNSENATPAALLGSLPLLNSSLQVLLAARAFNMNILDDAFEDASDTAGFSRDLHLSRSLGFEGKLVINPAQLASCHAAFAPSAEELSWARGVQQRMARRYATEESAGKLEAAQWRRAACLLERHREAELQGAAPTQRGGGGGVE” the “soluble on expression in E. coli” value was “not soluble”.
In the case of “MSLRERPVIDELSKVKKLKLTGQTEALFESWRSSWDEIETRLFPDLEEVLLEAEMNTDRYKFRSATHAENDIEQMLVVIEKQMDQILGGLKELLISEEKNAKESRATKEKFAELRREVLTRGFKLGETLPYIETKLSELSESLNSYDSLTDQGDHLEAREIVIVVQKEMQVIEAQMERIPSLLHETDTILPEEMTKLRAGYEEMVRKGYYLAQMELDKEISRMKNQIDKMKKNVINLDLDEAEQGVEELHNEIDLFYDTLEHEAEARHFVKENHSPTSDKLQRQNAVSDALAEQITEVKQTYHVAEDDLAVYLKTSAKLSEAKENFEQLTALIASGEIAYSAAQDTLKEIDAALITISAEQDKFAEELRSLRKDELEARDDAERMRRAIITLDRKMERERLPGLPEEYLSLREHMGESINALEKRLEEKPLNMKAVSQDWRIAEEDLTHLTEKAEEMMENVRLVEHVIQYANRYRLRNKELADELVQAENHFYNDYQYKKALEIAVTALEKVETGAFKKVEKAYESKVSVDEGHHHHHH”, the “soluble on expression in E. coli” value is reported as “not soluble”.
In the case of “MGFCNMLLLSNILLTAWLSTAKGEEILCTPPRVENGDGLNVKPVYKENERYHYKCKHGYVPKERGDAICTGSGWSSQPFCEEKTCSPPYILNGIYTPHRIIHRSDDEIRYECNYGFYPVTGSTVSKCTPTGWIPVPRCTLKPCEFPQFKYGRLYYEESLRPNFPVSIGNKYSYRCDNGFSPPSGYSWDYLRCTAQGWEPEVPCVRKCVFHYVENGDSAYWEKIYVQGQSLKVQCYNGYSLQNGQDIMTCTENGWSPPPKCIRIKTCSASDIHIDNGFLSESSYIYALNRETSYRCKQGYVTNTGEISGSITCLQNGWSPQPSCIKSCDMPVFENSITKNTRTWFKLNDKLDYECLVGFENEYKHTKGSITCTYYGWSDTPSCYDSTRTCGPPPPIDNGDITSLSLPEYEPLSSVDYQCQKYYLLKGNKTITCRNGKWSEPPTCLHACVIPENIMEAHNIILKWRHTEKIYAHSGEDIEFECKRGYQKARGSLPFRTKCINGTINYPTCV”, the “soluble on expression in E. coli” value is reported as “soluble”.
For “MSLSEASFLYLNDIHADPLYSPIIPSKHDCRGDHKKTIDPHKYGQYECDSPMELFESLVSNAKQTNEKPAFILLGGDLIAHGLNTDSKMLKQSFKNVTAPLEAAFPNTSIYITLGNNDFASDYGSFDTDADNFKTAYKVFGKWMNDEQSKTFLKGGYYYADFPEVNLRFLFLNSVMYAAKRDQTQHAEDPYDQFAWIESSYDDAVQKGFKVSVALHIPPGVYYYKNKLGWNEDYITKFSKIMKKCDFSFILSGHSHTDMFLPLYSPTADKDSVLYSLSAPSVSPVNYNNPGYRVFELSNGIVKDYTQYYADLLMNPSVLKWQVEYKFSDAYSASNVTRETINNAAEWVRTTGEGQWRYRERIYTRADEHNAFYYCALKALLPDDIVDCENKLNIDKLSAQPYYKEGHHHHHH”, the “soluble on expression in E. coli” value was “soluble”.
In the case of “MSLHNVVISGTGLFTPANSISNEELVESFNTYVHQFNSDNAAAIERGEVQALTESNAAFIEKASGIKSRFVMDKDGILDPQRMAPRLPERSNDEWSVLCQMAVAAAEQALQRAGKTAADIDGVIVACSNLQRAYPAIAIEVQAALGIQGFGFDMNVACSSATFGIQAACNSVQLGQARAILMVNPEVCTGHLNFRDRDSHFIFGDAATAVVIERADLATSEHQFDIVSTKLLTQFSNNIRNNFGFLNRAAEEGIGARDKLFVQEGRKVFRDVCPMVAELIAAHLEENQLNVSDVKRFWLHQANLSMNHLIVKKLLCREASVEEAPVILDTYANTSSAGSVIAFHKYQDDLASGSLAVLSSFGAGYSIGSVLLRKREGHHHHHH”, the “soluble on expression in E. coli” value is reported as “soluble”.
For “MKATSEELAIFVAVVESGSFSRAAEQLGQANSAVSRAVKKLEMKLGVSLLNRTTRQLSLTEEGERYFRRVQQILQEMAAAETEIMESRNTPRGLLRIDAATPVMLHFLMPLIKPFRERYPEITLSLVSSETFINLIERKVDVAIRAGTLTDSSLRARPLFTSYRKIIASPDYIARFGKPETVEELKRHLCLGFSEPVSLNTWPIACSDGQLHEIKCGISSNSGETLKQLCLNGNGIACLSDYMIDKEIARGELVELLADKRLPVEMPFSAVYYSDRAVSTRIRAFIDFLSEYIRTAPAGAVKEG”, the “soluble on expression in E. coli” value was “not soluble”.
For “MNIRNARPEDLMNMQHCNLLCLPENYQMKYYFYHGLSWPQLSYIAEDENGKIVGYVLAKMEEDPDDVPHGHITSLAVKRSHRRLGLAQKLMDQASRAMIENFNAKYVSLHVRKSNRAALHLYSNTLNFQISEVEPKYYADGEDAYAMKRDLTQMADEPASGPGSSCLLSGDLGPVSFHPLPSGLLAAAEAAPGAEGKGQAHGSGGLGEQSGEQRQRAFELRRGLS”, the “soluble on expression in E. coli” value was “soluble”.
With “VLGSSSTDAIGPGSVFQIDATVADVYLVSRFNRTHIIGRPVLYIVQDCFSKLIVGLYVGLEGPSWIGAAMALANTAGNKVSFCSQYGIDIQEEEWPVHHLPQAILADRGEMLSDNAESLIMNLGITVKNTPPFRADWKPLVERYFKLTNERTKSLLPGAVNTDFMQRGGRDYRLDAKLDLMQFTAIIIKCALFHNNHYRIDNYNKDEMMVADEVEPIPREIWNWGIANRMGKLRHVDEEVVKLNLMPSDNGVVTAKGIRFKGLFYSSKSSMKEQWFVKARSSGSWKVPVSYDPRNMNYIYIKKSATEFEKCYLLEYQTAFKDKYIEEIEYLMEWEKMQKAKSLDEGLQAKADLITEIETIVEGAKSKTNKELSLSTESDAQRKKNIRQNRQVEKEINREIEAFELDRQPNNKNAEIISLNELEEELPSNPLDLLRRKQREMLGKINE” the “soluble on expression in E. coli” value was “not soluble”.
For “MEEELRVRLNDHQVSKVFPVKPKSTANVVAVMEELVARRKLMKCVSNMEEGELGMLLGFLQRYCTVQRYSGLLMGLTKKVLETRAEDIKGKNEFKGLLRNLKREVNQEIRIQQSLLEIQGVIAPLMRIAGRS”, the “soluble on expression in E. coli” value was “not soluble”.
With “MLQKLIQILRRNEYVKNVYKNTVSNFIETSIPEITPFNARTSSIKGKRLNLLVPSINQEHMFGGISTALKLFEQFDNKKFKKRIILTDATPNPKDLQSFKSFKYVMPEEDKDFALQIVPFNDRYNRTIPVAKHDIFIATAWWTAYAAQRIVSWQSDTYGIPPNKILYIIQDFEPGFYQWSSQYVLAESTYKYRGPQIAVFNSELLKQYFNNKGYNFTDEYFFQPKINTTLKNYINDKRQKEKIILVYGRPSVKRNAFTLIVEALKIFVQKYDRSNEWKIISVGEKHKDIALGKGIHLNSLGKLTLEDYADLLKRSSIGISLMISPHPSYPPLEMAHFGLRVITNKYENKDLSNWHSNIVSLEQLNPENIAETLVELCMSFNNRDVDKKESSNMMFYINEFNEFSFIKEIEEKL” the “soluble on expression in E. coli” value was “soluble”.
With “NRLLSKYDPQKEAELRTWIEGLTGLSIGPDFQKGLKDGTILCTLMNKLQPGSVPKINRSMQNWHQLENLSNFIKAMVSYGMNPVDLFEANDLFESGNMTQVQVSLLALAGKAKTKGLQSGVDIGVKYSEKQER” the “soluble on expression in E. coli” value was “soluble”.
With “MPNILYKIDNQYPYFTKNEKKIAQFILNYPHKVVNMTSQEIANQLETSSTSIIRLSKKVTPGGFNELKTRLSKFLPKEVTQYNVELVDNESTISLKNKLHSRSKAAL” the “soluble on expression in E. coli” value was “soluble”.
In the case of “MRDALHVTADDADATDDAIPDSRETGVTGVVLAGGLSTRLGHDKAVIRLHGEQGPDLLVRTAALLEPLVDEVWISCRPGRCVTGPYLRIYDEVQGLGPFGGVMTALRAAQGPVLVLSCDLPFMERTLLERLLERRGARHPEALMTTFRQEETGFIESLVAVYEYACLPFFEDALTDGVHKLSRVIPAERREDIVYTQNEALPFFNVNYPADLEMARRIIGALLEHHHHHH”, the “soluble on expression in E. coli” value is reported as “not soluble”.
With “MGSDKIHHHHHHMWIVLDTNIYFNQWLLEGANFRVFRNFCNNTGATLLLPEVVKQEVQNKYDGELAQARIELDKLAAKFSKLGVECPSNLVVSDDYDFDQLVREQYRNVILVPYSGVAHEQLVEKALAPKLPFREKEKGYRDALMWLSILDYVKESGFKESIHFVNANSKDFYSNKSGGLTLHEDLKDDLRARNMETNIIPYTSLNEFVEGHVLQELHGVDWMDFYSEFNGELDSDVCVEAIAWLDECSLSVLREKLVEANYPGLIMDGVFAASFETWDGVEDSDILAMRKIDEDRYFIDYAFDIRGLEVKLLSSPTSPASGYFGAYIDVEIDNDLATTSFFTRADFKASVVFNITAEVVEDVDVTSFKFRPR” the “soluble on expression in E. coli” value was “not soluble”.
In the case of “MGSDKIHHHHHHMTVCVWCQRPLKTSLTLAQFWRWGPVTPPDICVPCQGRLSPISGQHCPQCGRQQTTCQLCQDCQRWDQPLVNRALYCYDAEMKAYMQQYKFQGDYALQRVLQRALATALTQLTYDILVPIPIAQSTWQSRGFNQVTGWLTGQAYYQVLQVIDQDKATPQSAKNRAQRFLLTPQPFTLAPQAKDLCHGQRVLLLDDVYTTGRTLRHAATQINLTGAKAVTSLTLAR”, the “soluble on expression in E. coli” value is reported as “not soluble”.
For “MAHHHHHHMSSVSSPPLTDAEVRELSTAEIRLNLERCSRLLSQASLLRRLRDGGEGIRHRSELFAKELERRHTVEAANGDASTRLASSTLTEALKRENEAAILSESTHNATDAAREIAQKYRDQRIDVEATVRRIYEGILSESEIQRILHSVPPRFFLTYAETCEMERQLARDARKVELQKLAAQAARLSATPQ”, the “soluble on expression in E. coli” value was “soluble”.
For “CEEPPTFEAMELIGKPKPYYEIGERVDYKCKKGYFYIPPLATHTICDRNHTWLPVSDDACYRETCPYIRDPLNGQAVPANGTYEFGYQMHFICNEGYYLIGEEILYCELKGSVAIWSGKPPICEKV”, the “soluble on expression in E. coli” value was “soluble”.
